The record followed here is patent US20210284730A1 (Janssen / Centocor, published 2021).

For test [1], the target named is T1, human CD33 (human, UniProt P20138 18-364).
T1 construct: whole, on cells; The target is CD33 on CD33+ tumor cell lines; also called CD33 on MOLM-13, Kasumi-1, OCI-AML-3 and Kasumi-3 cells
The test can be described thus: FACS binding to MOLM-13 tumor cell line (CD33+). Background: A flow cytometer gives signals particle by particle.

Test [2] addresses T1, human CD33. The test can be described thus: FACS binding to OCI-AML-3 tumor cell line (CD33+).
For test [3], the target named is T1, human CD33. The test can be described thus: FACS binding to Kasumi-1 tumor cell line (CD33+).

T1 sequence (P20138 18-364): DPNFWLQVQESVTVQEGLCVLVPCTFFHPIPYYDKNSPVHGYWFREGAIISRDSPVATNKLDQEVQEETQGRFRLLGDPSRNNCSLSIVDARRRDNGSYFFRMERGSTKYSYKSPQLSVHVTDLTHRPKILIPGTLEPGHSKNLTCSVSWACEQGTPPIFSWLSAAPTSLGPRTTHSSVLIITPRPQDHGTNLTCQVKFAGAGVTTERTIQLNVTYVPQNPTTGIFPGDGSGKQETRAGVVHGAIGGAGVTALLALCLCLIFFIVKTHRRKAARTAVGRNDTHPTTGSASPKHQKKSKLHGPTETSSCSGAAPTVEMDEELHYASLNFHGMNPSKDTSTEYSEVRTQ

B1: anti-CD33 antibody (clone C33B904) (antibody, V domains shown)
VH: EVQLVESGGGLVQPGRSLRLSCAASGFTFDDYAMHWVRQAPGKGLEWVSGIGWSGGSIVYADSVKGRFTISRDNAKNSLYLQMNSLRAEDTALYYCAKDSPYGDFFDYWGQGTLVTVSS
VL: DIVMTQSPDSLAVSLGERATINCKSSQTVFYSSNNKNYLAWYQQKPGQPPKLLISWASTRKSGVPDRFSGSGSGTDFTLTVSSLQAEDVAVYYCQHYYSTPYTFGQGTKLEIK
notes: also called anti-CD33 clone C33B904; anti-CD33 mAb
The term EC50 denotes the concentration at which the effect is half-maximal. Lower therefore signals greater potency. For the molecule B1, the concentration giving a half-maximal response (EC50) in test [1] is 134 nM; in test [2] it was 16.4 nM; in test [3], 82.2 nM.
